B1: proBDNF: murine proBDNF collected from supernatants of transfected 293 cells (protein)
chain: APMKEVNVHGQGNLAYPGVRTHGTLESVNGPRAGSRGLTTTSLADTFEHVIEELLDEDQKVRPNEENHKDADLYTSRVMLSSQVPLEPPLLFLLEEYKNYLDAANMSMRVRRHSDPARRGELSVCDSISEWVTAADKKTAVDMSGGTVTVLEKVPVSKGQLKQYFYETKCNPMGYTKEGCRGIDKRHWNSQCRTTQSYVRALTMDSKKRIGWRFIRIDTSCVCTLTIKRGR

What was measured:
Rac = Rac activity assay (GST-Pak-CRIB pull-down of activated Rac); assay type: cell-based, mouse; settings: mouse E15 DIV2 cortical neurons; 20 min; proBDNF with K252a
Protocol: Rac activity assays were performed as described previously (NEUBRAND, V. E. et al., Journal of Cell Science 123:2111-2123 (2010)). […] Cells were lysed in lysis buffer supplemented with 10 mM MgCl, lysates were cleared by centrifugation at 9000 g for 1 min, and cleared lysates were incubated with GST or GST-Pak-CRIB beads for 30 min at 4° C. Beads were washed and isolated active Rac was analyzed by Western blot. As a control, extra lysates were incubated with 0.1 mM GDP or 0.1 mM GTPγS for 30 min at room temperature before incubation with GST-Pak-CRIB beads. Western blots were analyzed by densitometry using ImageJ software, and isolated active Rac was normalized to the input.
GST and GST-Pak-CRIB proteins were expressed in E. coli BL21DE3 cells at 25° C. for 3 hours. Bacteria were disrupted by incubation with PBS supplemented with lysozyme on ice for 30 min and subsequent addition of 1 mM MgCl2, 0.1% TritonX-100 and 0.1 mg/ml DNAse for an additional 30 min. Bacterial lysates were cleared by centrifugation for 5 min at 3000 g and cleared lysates were incubated with glutathione sepharose. Beads were washed and the purity of the recombinant proteins was analyzed by Coomassie blue staining. 20 μg of sepharose coupled purified protein was used per reaction.

SorCS2 = target: T1, SorCS2 (Homo sapiens, UniProt Q96PQ0); experiment: Co-immunoprecipitation of proNT with SorCS2 in transfected 293 cells; assay type: binding; settings: 293 cells co-transfected with proNT and myc-SorCS2; IP-Western blot
T1 construct: expressed in transfected cells; host or cells: HEK 293 cells (proBDNF) / 293T cells (proNGF)
T1 sequence (Q96PQ0 51-1159): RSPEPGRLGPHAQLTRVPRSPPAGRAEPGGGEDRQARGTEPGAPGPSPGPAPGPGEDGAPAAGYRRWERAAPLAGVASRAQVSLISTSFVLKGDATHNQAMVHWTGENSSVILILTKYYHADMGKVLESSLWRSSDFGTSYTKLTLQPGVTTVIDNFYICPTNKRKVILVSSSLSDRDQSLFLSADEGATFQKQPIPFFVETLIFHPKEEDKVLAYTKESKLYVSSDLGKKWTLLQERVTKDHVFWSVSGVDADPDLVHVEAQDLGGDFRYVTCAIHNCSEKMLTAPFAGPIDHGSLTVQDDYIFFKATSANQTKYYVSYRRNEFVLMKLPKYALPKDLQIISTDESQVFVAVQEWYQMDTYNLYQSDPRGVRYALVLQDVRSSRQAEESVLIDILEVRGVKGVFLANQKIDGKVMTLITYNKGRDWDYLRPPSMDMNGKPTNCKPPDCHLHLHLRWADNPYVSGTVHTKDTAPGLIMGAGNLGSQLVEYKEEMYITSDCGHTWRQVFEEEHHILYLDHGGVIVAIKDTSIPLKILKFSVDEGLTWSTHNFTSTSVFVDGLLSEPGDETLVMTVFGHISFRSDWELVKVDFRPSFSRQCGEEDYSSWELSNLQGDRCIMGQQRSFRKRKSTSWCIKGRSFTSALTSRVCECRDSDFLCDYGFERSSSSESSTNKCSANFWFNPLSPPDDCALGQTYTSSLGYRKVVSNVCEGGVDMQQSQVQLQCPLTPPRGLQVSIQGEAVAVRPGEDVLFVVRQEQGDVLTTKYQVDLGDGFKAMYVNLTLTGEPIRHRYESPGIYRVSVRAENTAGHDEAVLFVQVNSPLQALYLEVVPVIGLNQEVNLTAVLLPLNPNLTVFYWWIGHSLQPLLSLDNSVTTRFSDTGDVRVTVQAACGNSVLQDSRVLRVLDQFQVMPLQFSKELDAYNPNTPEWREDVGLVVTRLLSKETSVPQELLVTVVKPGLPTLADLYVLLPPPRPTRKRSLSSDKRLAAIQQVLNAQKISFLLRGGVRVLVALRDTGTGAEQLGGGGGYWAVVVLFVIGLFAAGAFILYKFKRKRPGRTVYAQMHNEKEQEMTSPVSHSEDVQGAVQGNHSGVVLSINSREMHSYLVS
Protocol: FIG. 2A-G. ProNTs induce growth cone collapse. (A, B) DIV3 hippocampal neurons transfected with LifeAct-RFP were imaged by time-lapse microscopy before (top panel) and starting approximately 2 min after (bottom panel) treatment with proBDNF (A) or proNGF (B). Actin dynamics stalled upon proNT treatment and subsequently the growth cone collapsed. Time is indicated in (min:sec). Scale bars, 10 μm. (C, D) DIV3 hippocampal cultures were fixed and stained for p75^NTR (C) and SorCS2 (D). Arrows highlight growth cones. Scale bars, 20 μm. (E) Brain sections from 6-week old C57/BL6 mice were stained for SorCS2. DG, dentate gyrus. Arrows highlight expression in dentate granule dendrites. Scale bar, 200 μm. (F) Both sortilin and SorCS2 interact with proBDNF. HEK 293 cells were transfected with proBDNF-HA and myc-sortilin or mycSorCS2, lysates were immunoprecipitated with anti-HA agarose and analyzed by Western blot with indicated antibodies. (G) IP-WB from 293T cells showing interactions between proNGF and sortilin and SorCS2.
The LifeAct sequence (RIEDL, J. et al., Nat Methods 5:605-607 (2008)) was cloned into the pEGFP-N1 backbone (Clontech) using the BglII and BamHI restriction sites. Trio constructs were described previously (FERRARO, F. et al., Mol Biol Cell 18:4813-4825 (2007)), human sortilin cDNA or human SorCS2 cDNA was subcloned into the pcDNA3.1 hygro expression vector (Invitrogen). […]

Molecule	Rac activity after proNT exposure (Rac)	interaction with SorCS2 (co-immunoprecipitation) (SorCS2)
proNGF: proneurotrophin precursor of nerve growth factor, produced in Sf9 cells and purified	significant decrease in Rac activity	co-immunoprecipitated with both sortilin and SorCS2
B1	significant decrease in Rac activity	interact
